This data set is described as follows: soluble on expression in E. coli; label from the status in PepcDB or PDB records.
Regarding “MSLITLTTDFGLKGPYVGEMKVAMLRINPNAKIVDVTHSVTRHSILEGSFVMEQVVKYSPKGTVHVGVIDPGVGTERRAIVIEGDQYLVVPDNGLATLPLKHIKVKSVYEIIPDKIRKFTGWEISSTFHGRDIFGPAGALIEKGIHPEEFGREIPVDSIVKLNVEPRKEGDVWILKVIYIDDFGNVILNLENYEKPRTVELLDFNLRLPYLETYGLVEKGEMLALPGSHDYLEIAVNMGSAAERLNVKVGDELRVRLLEGGSHHHHHH”, the “soluble on expression in E. coli” value is reported as “soluble”.

Regarding “MGSDKIHHHHHHMNFLDGHLFPENQQPLIITAAPYAPSWMPSDFPEDIAVTMEDQIQKAVDCYNAGATVLHLHVRELDGKGSKRLSKFNELIAGVRARVPEMIIQVGGSISFAPESEGAAAKWLSDDTRHMLAELEPTPDQVTVTVNTSQMNILEQFDHRDIVGSSMEDPEVFNAYKEMTVPAQPGWVEEHVRRLTAAGIQSAFQCYNLNSFESVERLMRRGIYKGPLVLNWVAIGGGMDSPSVYSLANFVRAVPDGAVLTVESSVCNVLPVNTMGIAMGLHVRCGTEDTLWNQTRTKKMGTVAQIEQLVRISEEMSRPIATARQAREMCRIGEFYDTVDETLQANGFAPNRNGGQQGFLRKVA”, the “soluble on expression in E. coli” value is “not soluble”.

As to “LYIRGLQPGTTDQDLVKLCQPYGKIVSTKAILDKTTNKCKGYGFVDFDSPSAAQKAVTALKASGVQAQMAKQ”, the “soluble on expression in E. coli” value is recorded as “soluble”.

With “MSLSKREEWAQGFILNLQSGYTQGTVGFGLDAMGMLGVKLDSGRGRSGTGLLPKDSDGRAPDTYSKLGLTAKVKVSQSELKVGTLIPKLPSVQPNNGRIFPQIFEGALLTSKEIKDLGFTAGRLEKTKIRDSSDSEDLALNDKNGRFAGVSADHFDLGGLDYKLTDQLTASYHYSNLQDVYRQHFVGLLHSWPIGPGELTSDLRFARSTDSGSAKAGGIDNKSLNGMFTYSLGNHAFGAAWQRMNGDDAFPYLEGSNPYLVNFVQVNDFAGPKERSWQLRYDYDFVGLGIPGLTFMTRYVKGDNVELAGQSGEGREWERNTELQYVFQSGALKNLGIRWRNATFRSNFTRDIDENRLIVSYTLPIWEGHHHHHH”, the “soluble on expression in E. coli” value is “not soluble”.

On to “MTSRMQPKSGVYSVSKADFTKIFEDVPKVPITSAVDLRNKFDAVRIILSNSSEDWNKRQTQLKTVRSLVIHGEKVVDRPTMIAHLVQLLGCFELAVKDLRSQVLREAAITCSFIVSKYGIETHSIGEDILVPAMSQVAVSTKIMATSASTLTEFIVEYVQTRQVFTILSSFSTSKDKSQRRQLAALLEIVISKWSDRIKKQIMRQICELIKSAINDADSETRAAGRRAFAKLDEMHSEEADALYLELDHSKQKMLRGGDAASSWASVNSEKGSIPIRSKLSAGSKAHMNISAISEKKEGIKKLLPIVADTSLNPIEIKNIGNCLNRLLSDASNTMVLEIYSIFVRTHSSRLSEWLRLALAKLFARKAAETLPNTKKQIGHTLNVILECFNAHHQLVTVCELMCDPIHLMVPKARVVLLEYLTSLLDEYTEPGASINAKELKTAIRKMLTWASDPRLSILLTPHVEKAICSMFCVNVADFSALISDLDSEQKNWIHQTLQRNGLENGISSNNIATNSGATASRETSNTSFQKESTSFGLPEFGARKGGTGVNLGSLNISNNLALSRLEEQSTSRLMEKVNLNSTVTLPPDTLEKIQNVQDLLQKMRSSENADEQESAISSIYMMICDGGFGVWEQCYAKLLLNLFEILSKSRSENNKKMCLRILGKMCTAQAAKLFDSTEMAVCKVLDAAVNTNDATTALAVEDCLRTLATHLPLSNIINIAKVILNQEPIDDERASLVLKMVTRLFEELPAEELNNIVDDITPTIIKAYQSTSSTVRKTVVYCLVAMVNRVGEQRMTPHFTKLPKAMTNLIQVYVNRAISTSLPRL”, for which the “soluble on expression in E. coli” value is recorded as “not soluble”.

In the case of “MSLSADKLYIDKELSWLSFNERVLQEAADKTVPLIERIRFLGIFSNNLDEFYKVRFADVKRQILINRERGGNDISKHLLSRMQSKALKLNQDFDNLYNELILEMARRRIFLVNETQLDEIQLKWVKKYFHKEVLPHVTPIMLRDDIDVMQFLKDEYAYIAVEMRSGDEFKYALIEIPTDQLPRFVMLPEQKGKRRKTIILLDNIIRLCLDEIFRGFYDYDTLNGYAMKMTRDAEYDLRHEVEYSLLEQMSEGLSQRLTALPVRFVYEREMPEAMLKFLCYKLKISHYDSLIPGGRYHNFKDFISFPNVGRDYLENKPLPPMTCADFEGYANAFDAIRAQDILLHYPYHSFEHMTELVRQASFDPKVVSIKINIYRVAKDSKLMNSLVDAVHNGKRVVVVVELQARFDEEANIEWSRILTDAGVHVIFGVPGMKIHAKLLLITRKEGDEFVRYAHIGTGNFHERTARIYTDFALLTANQELAAEVRAVFGYIENPFRPVKFNHLIVSPRNSRTQIYRLLDSEIANAKAGKKAAITLKVNNLVDKGLINKLYGASAAGVKIRMIIRGMCSLVPGVEGVSDNIEIISIIDRFLEHPRVLVVHNDGNPQVFISSADWMERNIDHRIEVMAPIRDERLKQRIIDILNIQFIDTVKARRIDKEMSNQYVERGNRRKVRSQIAIYDYLKNVEKQTRKAKGQQETNDNSSQEGHHHHHH”, the “soluble on expression in E. coli” value is “soluble”.

“MKTEKEEAEEEPFVIRPYLKSELAHKYNPHLPLIYAMQKLRGWIRNNKELYDAMYSGGEGKNDHAYSSRQVRLIVKFLDEP”: the “soluble on expression in E. coli” value is reported as “not soluble”.

For “MFFSVVIPTYNRLPILEKCLRALEQQTFDETLISGYEIVVVDDGSTDGTLAWLDGHCQGFPHVRTWEQDHQGPAAARNLGVKEAAGDTIIFIDSDLVVTDIFLQAHAEGLQRGQKQYNSDRVFTYGAVVNTCNFDSPQSEPYKLTDYSAAFFATGNVAIAKQWLLEAGLFDTGFQLYGWEDLELGVRLKNLGLKLVKCPRAVGYHWHPPFSLQQIPKLIDQEIQRGRMGVLFYQKHPTWEVRLMIQMTRLHWFLWGLLSLGGRLNEKTMAPLLQWLIDHDRPQLALEIARIFLNWYNVQGVYAAFAESQSSHLEHHHHHH”, the “soluble on expression in E. coli” value is on record as “not soluble”.

Consider “MSLSGVVERITFVNEENGFSVVKIKSKGFSDLVTAVGNMASVNVGAVVSLRGEWKYDSKFGRQFNVYHYEESIPATVAGIEKYLGSGLIKGIGPVNAKRIVKVFKEDTIRVIEEEPDRLIEVPGIGKKRVEMIKEAWQNQKEIKNVMLFLQSHGVSTAFAVKIFKTYGSDSIKIVKENPYRLADDIWGIGFKTADKIAQNMGYDKESYARIRSGIMYALNEFANDGHCFAKKDELVNKASELLGVELEKVETAIQHMLEEKSVIMEEDDAVYLPPFYYSEVGVARRIREIIETKSMYSFYNFDGIIEDLQRECNIQYDEVQIEAIRKAVVSKFMVLTGGPGTGKTTTTLAIIKVFQKLGATVLLAAPTGRAAKRMSEATGMEAKTIHRLLEYSPQDGYKKNDDNPLECDVLIIDETSMIDIILMYNLLKAVSNNTVVILVGDVDQLASVGAGNVLKDIIESGMVTVVRLMRIFRQAMGSAIVTNAHKINHGEYPVLKGGKNSNFFFIEEEDPEKIVELVRELCSKRLPGYYKINPLNDIQVLCPMQKGVVGAQNLNTVLQETLNPCDISIKYGGTIYKLNDRVMQIKNNYDKNVFNGDMGIITDIDQEEKTVRIKFDDAEVEYDVTELDEVTLAYAVTVHKSQGSEYNFVVAPFTMQHYMMLQRNLLYTCVTRAKKVLVLIGSKKALGCCIRNSRSMDRNTKLAQRLKADTEGHHHHHH”, for which the “soluble on expression in E. coli” value is given as “soluble”.

For the sequence “MGSDKIHHHHHHMRASSHLPQLHGRLDLTFERRRGTTRLVASEQTPPLNVSRVLRTEEVDLATVYLVETSGGVVSGDSQTIAIYVGEGARVELIPQSATKVYPSRKQGESSTQQVWLRVDEGAAAFWKPESIIPFRKASFLQSTRFHLHSSSTFFYGDMLTPGRVHHNERFQYEQVDSLVEIYLDETLVVHDRVHLQPKDQLQTIGRLDGYSYYGAVWMHAPILKGAHLEQWMENGGQNDRFAYTCVAEGLIHVRWLSESSWRLRAALNDLYTAFRTFALKGE”, the “soluble on expression in E. coli” value was “not soluble”.

As for “MIGLLFLFAACQEKVTSPAKVDTLPSIFPDYVGVTIPSTIAPLNFRVTDDGVEAVDVVIAGTKGKPVRLNGRSVDIPAKQWHELLESNKGDSIEVKVSVRQGKKWKEYRPFPIYVSPFPIDYGLVYRLLAPGYEVYSKMGIYERELSTFRQTPLFENTQVTAACINCHAFNRTEPTPSSVHVRGGHGATVIDTGDRLEFLDTKADGQLSACVYPYWHPSGEYIAYSVNKTNQAFHLGGKKPIEVFDQASDVVVYHPRSHRILTTPLLSTASFETFPAFSPDGRTLYFCSAEQKEMPVRYKDVKYSLCSIAFHPEDGTFGDRIDTLISARTLDKSISFPKPSFDGKYLMFTLSDYGNFSIWHKEADLWLLDLKTGTYRNLEEVNSDDTESYHNWSSNSHWFVFSSRRGDGLYTRLYISSVDGQGRIGKPFLLPQQDPYTFYDQLIYSYNVPEFVSAPVQWDKREMAKGLMSKERVKVKLEHHHHHH”, the “soluble on expression in E. coli” value is listed as “not soluble”.

As for “MKYLSAKSKLNIDAQDGGFTTTLLSYCLENGILDAVVVVGDKNWKPVAYLATTPTELLKSTKSKYSISPNNKLLEYATENYDKVGLVGLPCHILGGLQFDLTLKVGLFCTKNFYYDTIKSIIKERFGVNIDEVAKMNITKGKFVVETLKKKGFAGTEKVVYEIPIKEIEKLCNLGCRVCTDFSAKYADVSVGSVGSEDGWNTVIVRNKMVEDIINEMAEKGLIEVKETVDIKAIEKLENIKKKNEEINKCSAYFAVCPALFLEHHHHHH”, the “soluble on expression in E. coli” value is listed as “not soluble”.

On to “MAGYVGDVAIAYDRDLGHVLFEQYASDIARRTAGKPVRDVLEVASGTGIVTRQLRNVLPGDAQLTAIDISDSMMEVARTKFLPHEQVTFQVANAVALPFDDRAFDTVVCQFGVMFFDKDKAFQETHRVLRQGGRYLFSVWDSRDYNPYASLTFEVMKQFFPSDPPRFLESTVSSFEIDPVKERLIRAGFEQISISVQRRIYDIPDIRAFARGLIFSPIINEIRERGEVDPDDIVEALVKIFIGEYGSNPTRFPMQAILFETEKPLEHHHHHH”, for which the “soluble on expression in E. coli” value is listed as “not soluble”.

Consider “MKIMINPKYEYLREYVERIPKDFETIGTVIHSGRNLIKMITVDGLDINVKRYTIPPLINRIAYAFFRPSKGKRAFVYPEKLLEKGFETPCPIAYIEETKMGLIGHSYFMSIQSPYRYNFCQFGNADIKSCEDVVTAFAEFTARLHEAGILHLDYSPGNILYDKIGEEYHFSLVDINRMHFGEVDIKKGCANFARLWGQTPFFILLGKEYAHSRGMDEEECVRLVLHYRKKFWNRYRRRHQVWFQLDI”, for which the “soluble on expression in E. coli” value is on record as “not soluble”.

“MNLPLEYHPFPAILPKSATVAMLGTFPPTSEKRCMEFHYPNFQNDMWRIMGLLFYKNLDHFRVDQEKRFDPVRIEAFLREKGIALCSSAQTAIRLKGNASDKDLKIIDAIDMQALLTELPQLKWLFTTGGLATETLLSLLPEKSKLPKTNEWINYPYTTDRTLYLYRLPSTSRAYPLSLAKKVEAYRQFFVRVGLEHHHHHH”: the “soluble on expression in E. coli” value was “not soluble”.

On to “MSSIASNTFTKTVESVPVDIKYDSDKYFISGYSYDAEVYLTATTQLALTTETTSDTRHFKLVADLSNFGPGTSHVPIQVKNLPDGMSAQVSPSTLTATIGKKASKTFDVVANITPDKLANGYEVKKVSLDETKVEVTSSEDIINQIDHVQAVLEGDDNLSDDYDGNLVLQAVSSNGTILASSISPAKVHAKISLRKLSKSVPVKLELTGDKASNVSSISYSFDRGHVTIVGSQEAMDKIDSITVPVDISQVTEDTSKTLELKAEGVTVQPSTVKVNLKVTQKLEHHHHHH”, for which the “soluble on expression in E. coli” value is listed as “soluble”.

With “MGHHHHHHSHMRKNESYLNQPAPPIPIPTLSLMGGCREHFENHWKGRARWLMPVIPALWEAKAGRSPEVRSSKPAWPTWRNPIFTKNTKISQVLELFLNYQSLICALEKQKRQKGSLAIFCWSFQGGCVSKRPDVPSLKSQKPKRKRITGRKRLSKGFWSLLFSNLGRF”, the “soluble on expression in E. coli” value was “not soluble”.

For the origin of these results see the DeepSol protein solubility set.
